This note sets out measurements from US20250154231A1 (RQBIO COVID, published 2025).

The target in the assay is SARS-CoV-1 S protein (SARS-CoV-1, UniProt P59594 14-1195). In words: ELISA. (ELISA stands for enzyme-linked immunosorbent assay.)

B1: Omi35 (antibody, V domains shown)
VH: QVQLVESGGGLVQPGRSLRLSCAASGFTFDDYAMHWVRQAPGKGLEWVSGSTWNSGTIDYADSVKGRFTISRDNAKNSLYLQMNSLRAEDTALYYCAKDRFRKGCSSTGCYKENYGMDVWGQGTTVTVSS
VL: QSVVTQPPSVSVAPGQTARITCGGTNIGSKSVHWYQQKPGQAPVLVVYDDSDRPSGIPERFSGSNSGNTATLTITWVEAGDEADYYCQVWDSSSDNVLFGGGTKLTVL
Consider B1, for which the binding result is recorded as “no binding”.

B2: Omi29 (antibody, V domains shown)
VH: QVQLVESGGGLVQPGGSLRLSCAASGLIVSRNYMSWVRQAPGKGLEWVSLIYAGGSTFYSDSVKGRFTISRHSSENTLFLQMNSLRAEDTAVYYCARDLVHYGMDVWGQGTTVTVSS
VL: NFMLTQPASVSGSPGQSITISCTGTSSDVGGYNYVSWYQQHPGKAPKLMIYDVSNRPSGVSNRFSGSNSGNTASLTISGLQAEDEADYYCSSYTSGSTWVFGGGTKLTVL
For the molecule B2, the binding result is “no binding”.

B3: Omi34 (antibody, V domains shown)
VH: QVQLVQSGAEVKKPGSSVKVSCKASGGTFSSYGIRWVRQAPGQGLEWMGGIIPVFGATNYAQKFQDRVTITADKSTATAYMELSSLKSDDTAVYFCARDALSASGWTGPFDSWGQGTLVTVSS
VL: QSVLTQPPSVSGAPGQRVTISCTGSSSNIGADYDVHWYQQLPGAAPKLLIYGNNNRPSGVPDRFSGSKSGTSASLAITGLQAEDEADYYCQSYDSSQNAFYVFGTGTKVTVL
On to B3, for which the binding result was “no binding”.

B4: Omi09 (antibody, V domains shown)
VH: QVQLVESGGGVVQPGRSLRLSCAASGFTFRTYAVHWVRQAPGKGPEWVAVISYDGSNKYYADSVKGRFTLSRDTSKNTLYLQMNSLRAEDTAVYYCASRGDTVTTGDAFDIWGQGTMVTVSS
VL: SYELTQPPSVSVSPGQTARITCSGDALPKQYTYWYQQKPGQPPVLVIYKDSERPSGIPERFSGSSSGTTVTLTISGVQAEDEADYYCQSTDSSATYPGNVVFGGGTKLTVL
For the molecule B4, the binding result is recorded as “no binding”.

B5: Omi31 (antibody, V domains shown)
VH: EVQLVQSGAEVKKPGSSVKVSCKASGGTFSSYGISWVRQAPGLGLEWMGGVIPILSAKHYAQRFQGRVTITADKSTGTAYMELSSLRSEDTAVYYCARDILHHDDLWGRFYYDGMDVWGQGTTVTVSS
VL: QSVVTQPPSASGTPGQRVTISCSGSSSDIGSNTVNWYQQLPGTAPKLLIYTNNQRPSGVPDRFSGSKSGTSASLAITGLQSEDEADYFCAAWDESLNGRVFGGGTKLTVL
In the case of B5, the binding result is recorded as “no binding”.

B6: Omi23 (antibody, V domains shown)
VH: QVQLQESGPGLVKSSQTLSLTCTVSGDSISRGGYYWSWIRQHPGKGLEWIGSIYYSGSTYYNPSLKSRFTISVDTSKNQFSLKLSSVTAADTAVYHCAREIGFLDYWGQGTLVTVSS
VL: AIQMTQSPSSLSASVGDRVTITCRASQAISNSLAWYQQKPGKAPKLLLYAASTLESGVPSRFSGSGSGTDFTLTISSLQPEDFATYFCQQYYSTPPRTFGQGTKVDIK
On to B6, for which the binding result is “no binding”.

B7: Omi28 (antibody, V domains shown)
VH: EVQLVESGGGLVQPGGSLRLSCAASGVIVSSNYMSWVRQAPGKGLQWVSVIYSGGSTFYADSVKGRFTISRDNSKNTLYLQMNSLRAEDTAVYYCARDLLEAGGTDYWGQGTLVTVSS
VL: DVVMTQSPGTLSLSPGERATLSCRASQFIGSSYLAWYQQKPGQAPRLLIYGASNRATGVPDRFSGSGSGTDFTLTISRLEPEDFAVYYCQQYGSAPGTFGQGTKVEIK
For B7, the binding result was “no binding”.

B8: Omi24 (antibody, V domains shown)
VH: QVQLVESGAEVKKPGSSVKVSCKASGGTFSSHGVIWVRQAPGQGLEWMGGIIPIFPTANYAQKFQGRVTITADKPSNTAYMELSSLRSEDTAVYYCARARGEHDSVWGSFHYYFDYWGQGTLVTVSS
VL: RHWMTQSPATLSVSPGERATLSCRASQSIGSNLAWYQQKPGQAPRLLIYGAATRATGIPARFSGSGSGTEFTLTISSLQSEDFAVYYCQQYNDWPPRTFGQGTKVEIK
B8: the binding result is recorded as “no binding”.

B9: Omi25 (antibody, V domains shown)
VH: QVQLVESGGGLVQPGRSLRLSCAASGFTFDDYAMHWVRQVPGKGLEWVSGISWNSGSIVYADFVKGRFTIARDNAKNSLFLQMNSLRAEDTALYYCAKSTALRHQYYYGMDVWGQGTTVTVSS
VL: AIQMTQSPSSLSASVGDRVTITCRTSQTISSYLNWYQQKPGKAPKLLIYDASSLQSGVPSRFSGSGYGTDFTLTISSLQPEDFATYFCQQSYNTPYAFGQGTKVEIK
Consider B9, for which the binding result is recorded as “no binding”.

B10: Omi26 (antibody, V domains shown)
VH: QVQLVQSGTEVKKPGASVKVSCKASDYTFTRFGIIWVRQAPGQGLEWMGQINPYNGNTDYAQKFQGRVTLTTDTSTNTAYMELRSLRSDDTAVYYCARSAGSPTGLDYWGQGTLVTVSS
VL: QSVVTQPPSVSEAPRQRVTISCSGSNSNIGNNAVNWYQQLPGKAPKLLVYYDDLLPSGVSDRFSGSKSGTSASLAISGLQSEDKADYYCAAWDDSLNALVFGGGTKLTVL
Consider B10, for which the binding result is reported as “no binding”.

B11: Omi20 (antibody, V domains shown)
VH: EVQLVESGGGLVQPGGSLRLSCEASEITVSSNYMNWVRQAPGKGLEWVSVLFAGGTTYYADSVKGRFTISRDNSKNTLYLQMNTLRIEDTAIYYCARDLVAYGVDVWGQGTTVTVSS
VL: AIQMTQSPSFLSASVGDRVTITCRASQGISGDLAWYQQKPGKAPKLLIYAASTLQSGVPSRFSGSGSGTEFTLTISSLQPEDFATYYCQHLNSYPLTFGGGTKVEIK
For the molecule B11, the binding result is reported as “no binding”.

B12: Omi38 (antibody, V domains shown)
VH: QVQLVESGAEVKKPGSSVKVSCKASGGNFNMYTISWVRQAPGRGLEWMGRFIPIANKANYAQNFPGRVTITADKSTSTVYMELRSLTSDDTAVYYCARSGSYDAFDVWGQGTMVTVSS
VL: AIRMTQSPSTLSASVGDRVTITCRASQTINSWLAWYQQKPGKAPKLLIYDASNLESGVPSRFSGSGSGTEFTLTISSLQPDDFATYYCQQYESYSPITFGQGTRLEIK
As for B12, the binding result is recorded as “no binding”.

B13: Omi06 (antibody, V domains shown)
VH: EVQLLESGPGLVKPSETLSLTCTVSGGSISRYSWSWIRQPAGRGLEWIGRMYSSGGTNYNPSLESRVTMSLDTSKKQFSLKLSSVTAADTAVYYCAAASIDQVWGTYRDAFDIWGQGTMVTVSS
VL: AIRMTQSPSSLAASVGDRVTISCRAGQSISSFLHWYQQKVGKAPKLLIYDASSLQSGVPSRFSGSGSGTDFTLTISSLQPEDFAAYYCQQSYENPLTFGGGTKVDIK
B13: the binding result is listed as “no binding”.

B14: Omi08 (antibody, V domains shown)
VH: EVQLVESGAEVKRPGASVKVSCKASGYTFTNYFMHWVRQAPGQGLEWMGVINPSDGGASYPQKFQGRVTMTRDTSTSTVYMDLSSLRSEDTAVYSCARGAFDVSGSWYVPFDYWGQGTLVTVSS
VL: QSVVTQPPSVSGAPGQRVTISCTGSSSNIGAGYDVHWYQQLPGAAPKLLIYGNTNRPSGVPDRFSGSKSGTSASLAITGLQAEDEADYYCQSYDITLSGSGYVFGTGTKVTVL
For B14, the binding result is given as “no binding”.

B15: Omi41 (antibody, V domains shown)
VH: QVQLVQSGAEVKKPGASVKVSCKAAGYSFMNYGINWVRQAPGQGLEWMGWINTYNGNAKYAQKFQGRVTMTTDTSTSTAYMELRSLRSGDTAVYYCARDPFTGYDDVWGGDYWGQGTLVTVSS
VL: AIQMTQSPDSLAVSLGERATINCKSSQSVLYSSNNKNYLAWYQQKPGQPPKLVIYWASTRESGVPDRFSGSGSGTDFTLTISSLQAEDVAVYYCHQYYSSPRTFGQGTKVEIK
Regarding B15, the binding result was “no binding”.

B16: Omi36 (antibody, V domains shown)
VH: EVQLVESGGGVVQPGGSLRLSCAASGIIVSANYMTWVRQAPGKGLEWVSVIYPGGSTFYADSVKGRFTISRDNSKNTLYLQMNSLRVEDSAVYYCARDLELAGFNDYWGQGTLVTVSS
VL: DIVMTQSPGTLSLSPGERATLSCRTSQSVSSNYLAWYQQKPGQAPRLLIYGASSRATGIPDRFSGSGSGTDFTLTISRLEPEDFAVYYCQQFGSSPRYTFGQGTKVEIK
In the case of B16, the binding result is listed as “no binding”.

B17: Omi42 (antibody, V domains shown)
VH: EVQLLETGGGLVQPGRSLRLSCAASGFPFDDYAIHWVRLAPGKGLEWVSSISWDSGSIGYADSVKGRFTISRDNAKNSLYLQMNSLRAEDTALYYCAKGAFPGYSSGWYYGLDVWGQGATVTVSS
VL: QSVVTQPPSASGSLGQSVTISCTGTSSDVGGYNYVSWYQQHPGKAPKLMIFEVSKRPSGVPDRFSGSKSGNTASLTVSGLQAEDEADYYCSSYAGNKGVFGGGTKLTVL
Consider B17, for which the binding result is “no binding”.

B18: Omi27 (antibody, V domains shown)
VH: EVQLLESGGGLVQPGGSLRLSCVASGLTVSSNYMSWVRQAPGKGLEWVSIIYPGGTTYYADSVKGRFTTSRDKSKNTLYLQMNSLRAEDTAVYYCARDLAVAGGMDVWGQGTTVTVSS
VL: EIVMTQSPSSLSASVGDRVTITCRASQGIGNDLGWYQQKPGKAPKVLIYAASNLQSGVPSRFSGSGSGTDFTLTISSLQPEDFATYYCLQDSNYPYTFGQGTKVEIK
In the case of B18, the binding result is given as “no binding”.

B19: Omi02 (antibody, V domains shown)
VH: EVQLVESGAEVKKPGSSVKVSCKASGGTFSSYAINWVRQAPGQGLEWMGGIIPIFRTPHYAQKFQGRVTITADESTGTAYMELSSLRSEDTAVYYCASPSCGGDCPQYLKSSKLDWYFDLWGRGTLVTVSS
VL: VIWMTQSPGTLSLSPGERATLSCRASQSVSSTYLAWYQQKPGQAPRLLIYGASSRATGIPDRFSGSGSGTDFTLTISRLEPEDFAVYYCQHYGSSPLTFGQGTRLEIK
For the molecule B19, the binding result is on record as “no binding”.

B20: Omi39 (antibody, V domains shown)
VH: QVQLVESGGVVVQPGGSLRLSCAASGFSFDDYSMHWVRQAPGKGLEWVSVIYWDGVSKYYADSVKGRFTISRDNSKNSLYLQMNSLRTEDTAVYYCAKDSEDCSSTSCYMDVWGKGTTVTVSS
VL: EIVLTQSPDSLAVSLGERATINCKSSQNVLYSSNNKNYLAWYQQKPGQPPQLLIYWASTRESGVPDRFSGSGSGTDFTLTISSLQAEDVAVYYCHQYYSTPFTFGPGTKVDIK
On to B20, for which the binding result was “no binding”.

B21: Omi32 (antibody, V domains shown)
VH: EVQLVESGGGVVQPGRSLRLSCAASGFTFSNYGMHWVRQAPGKGLEWVAVYWYDGGNKFYADSVKGRFTISRDNSKNTLYLQMNSLRVEDTAVYYCARDTAPPDYWGQGTLVTVSS
VL: AIRMTQSPGTLSLSPGERATLSCRASQSISSSFLAWYQQKPGQAPRLLIYGASSRATGIPDRFSGSGSGTDFTLTISRLEPEDFAVYYCQQYGTSPRLTFGGGTKVDIK
On to B21, for which the binding result is “no binding”.

B22: Omi30 (antibody, V domains shown)
VH: EVQLVESGAEVKKPGSSVKVSCKASGGTFSRYAISWVRQAPGQGLEWMGGIIPIFDATNYAQKFHDRVTITADKSASTAYMELSSLRSDDTAVYYCARERTYCSGGTCYGGYFYYGMDVWGQGTTVTVSS
VL: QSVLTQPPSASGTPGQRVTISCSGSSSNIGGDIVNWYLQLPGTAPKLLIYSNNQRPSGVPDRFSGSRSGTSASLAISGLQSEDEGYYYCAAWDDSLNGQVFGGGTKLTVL
As to B22, the binding result is on record as “no binding”.
